Assay results as given in the DeepSol protein solubility set.

experiment: soluble on expression in E. coli; label from the status in PepcDB or PDB records

Sequence	soluble on expression in E. coli
MGSDKIHHHHHHMTKHFSPYDADKPLFATCSCGQHASEEDHLKAGMSTLEHQETGRSTEEEFSNDFIEAALVKAILPHERQRRDFLRAVGKGAAMAAISAVFPLGSLKAMAMEKGSIEKSTLKVGFIPITCAAPLILAEPMGFFKEQGLNVELNKTAGWALVRDKIMNHEYDASQFLAPMPLAMTLGAGSSAQTVNVAAIQNVNGQAIVLALKHKSNRDPKNWKGFKFAIPFEFSMHNFLLRYYLAEAGIDPDRDVQLRVVPPAEMLANLRAGNIDGFLGPDPFSQRAVFEGVGFIHILSQDIWNGHPCCSFGASASFIQQNPNTFAALYRAFLKSSAFAHDKNNRKEVAAIISKPKYLNQPEIIVNQVITGRYADGLGNIVNAPGRVGFEAIPWEGMALWMLTQMKRWGYLKGDVSYQAIAEKVFMMTDAKKAMQGLGLEVPQSSGKIVVMGKAFDPLKPQSYVDSFGIKR	not soluble
MGSDKIHHHHHHMTKKTGFFKRLKALELPQKQLFAIALCQRMLPNYQLFSEVCEFGDPAVLNTVLELLWQSQYDNKLKFNIDVHLQRLEDNTPDPVDFEAYGVYPAMDAVVALSTLLSAIQDKNEEDIINISKLSSSTVANYIEAISDVDLVDDALDDFVFAHEVMEEEKELQNSLLEIIEENPKITAELVKGLRKDIIEAGVSNIGISIA	not soluble
MGSDKIHHHHHHMTKRAYQYRFYPTPEQAQLLARTFGCVRFVYNAVLRYRTDAFYQRQERIGYVEANAYLTRMKKADETAFLNEVSSVPLQQCLRHQQAAFKHFFEGRARYPAFKNKRHRQAAEFTRSAFKYRNGQLFLAKCKEPLAIRWSRELPSEPTTITISKDSAGRYFVSCLCEFTPETLPVTPRMTGIDLGLKDLFITDQGERIGNPRHTAKYAARLAKAQRRLSKKKLGSANRAKARKRVARLHAKISDCRMDRLHKLSRRLINENQVVCVESLKVKNMLRNPSLAKAIADAGWGEFARQLEYKAQWAGRQLVRIDPWYPSSKRCSDCGHIKDALPLSVRAWDCPACGVTHDRDINAARNIKAAGLAVLALGENVSGMEPVSVSGSR	not soluble
MGSDKIHHHHHHMTLPEPDFIARDPAVITAELIAQYEQMSGKTLYPAQVERLLIDLMAYRETLVRVGIQEAAKQNLVAYARAPMLDYLGQLVGVTRLPAQPARATLRFTLDAPLASPLPIPAGTRVESGDGVVAFATDEAATLPAGRTSLEIAATCQDAGSAGNGWQPGQIVNLMDDLGDMDVVVTNTAVTAGGVDEEDDERLRERIMLAPESFSNAGSRQAYRFHALRAHQSIVDVAVLSPTPGVVQLYPLLKTGLPDANMLALVQATCSAERVRPLTDYVEALAPTAIDYAIDVRLTVYPDVDGKAVKTQAQERLQAYAAERAGALGRDIVPSQIIAAVQVPGVYQATVASPGLQQVPEHGWARCTGVSVTLEGVSHG	not soluble
MGSDKIHHHHHHMTMKTRDKILLSSLELFNDKGERNITTNHIAAHLAISPGNLYYHFRNKSDIIYEIFQEYEKLVDYYLDIPEDRPITLEDMTFYLESVFDGLWSYRFFHRDLEYLLDSDPRLRQDYREFTNRCLAAINRIFAKLADAGIIQPQPEDLRSAMSLNVWLVITNWMAFLKTAHAAEEPASLSLTELKQGIYQVLTLEVPYLTPEYRERVLALREKYRPTLPEAQGISGVEA	not soluble
MGSDKIHHHHHHMTMTFALRDPAQVLARALELRVDVSPETAEVEHELGALHDRMRRPGDRLHDMPHMPSGLPGLRLRYREADGEIFVYVEDVASRQLAGYTVFNRLIEVGRRADPWVRSPHTKFAPPYQRLGLASGLYRWALDGGLCLLSGARQSAGAHALWQSLGRRYALGYVDLRYKTLTSLGEQVSAVVKDDLHTRMLLLGHGWTLGRFKEATGMY	not soluble
MGSDKIHHHHHHMTNDSIKSETEVAPRDQSAVGTIPWAIKGELILNCNCTVFCPCVVSLGKHPPTEGYCQAWAGVRIDEGHYGDADLSGLNVGLVLEIPGLMARGNWKAAAYIDERASDAAYEGLIDVFSGKARGTTGLFKVLVSEFLGAERAPVLFETEGKTRRLIVGYYIHGEVVPVGGADSDQDIVVTNTEYWMGPDITVATATKGRVRAFGRVWDFDGRSAEICQIDWKGPR	not soluble
MGSDKIHHHHHHMTQDAQCTRRTDWIPLAREVLDIEIEGIAAMRDRLNGGFVDALTLMARCTGRVVITGLGKSGLVGRKLAATLSSTGTPAFFLHPVEGAHGDMGMLRSDDVIIAISNSGETDELNAILPALRSLGASLIAMTGGLESTLAKSADVVLDTGVRREACPLNLAPTASTTAVLAMGDALAVCLIHWKSFTENDFLRFHPGGSLGHRLSMRVESLMHTENLPVVRETVRTGEALRVLDEGRLGTVLVTDGQGRLSGILTDGDVRRMVCREAGVETASPVANVMVRSPLTARKEFSVAQLIDMMEERAITVLPITGDDGLLLGVVHLHDLLGKGGVKFSR	not soluble
MGSDKIHHHHHHMTRADYLNQLEQALFQLHPSARQEALDYFNEYFDEKDNDEEAIIELGTPDEAAKEIIANLPEDALIPEKDQASPHSSKPFDFNFDFDFQFDWENFFNNFKHSAYQARERIKLTSKIEELPEFSNLQISLEDQALSVQSYEGEAVLLHNPVSEDGSYQAFDYQLVQDSLYISSKPTPNHLYFSNNQISSAILKIPKKLLPLTNLNLKTADSSLTIVDVQVCEQMVVNAKDSSISMTKVSCPSSALQLEDSTLTISDGQMSELKLEASDAVITLSSMSLSDARITLEDCVWKLKDFVLEKSLNCQAEDSVLTYKPSTDISLDIWEEDSSLKLPKDKAFTMMKEGDITHLSYKQENSPAQLVIHCQDCQLSVG	not soluble
MGSDKIHHHHHHMTRFRSTLPQVNGTTLLTDSGLETTLIFHDGLDLPCFAAYPLMETAEGRAVLRDYFQRHLAIASERSAGFLLESPTWRASRDWGAQLGHGPDDLARLNNDAIAMLVDLRDDATGVGPIVISGNIGPRGDGYVADAAMTADEAEDYHAEQIGWFAQSEVDLATAVTLSTVAEGVGVIRAAHRVDLPVVVSFTTETDGRLPDGTPLGRAIEQTDALTDGAAAYFMVNCAHPDHFRPVLDTGTAWLNRIGGVRANASRMSHAELDEAETLDAGDPAELGRDYRDLRQILPNLTVIGGCCGTDHRHIEAMADRCLGHNAA	not soluble
MGSDKIHHHHHHMTRILVLYFTRGGHTAKIANAIAEQLTLRGAKVDLVDINSAAATRINWSDYQLVALGACVLYGTYDKSVFQFIEQHVQALSFLPNSFFCVNVVARNPEKRIPENNKYLQKFITLSPWTPADLKIIAGKVDYPSWPWYDRLMIQLIMKITKGPTDPKAVIDYTDWEDVKVYADHLLTLVEVAEPA	not soluble
MGSDKIHHHHHHMTRLEIVDSKLRQAKKTEEYFNAIRTNIQFSGKENKILAITSVREGEGKSTASTSLALSLAQAGFKTLLIDADTRNSVMSGTFKATGTIKGLTNYLSGNADLGDIICETNVPRLMVVPSGKVPPNPTALLQNAYFNKMIEAIKNIFDYIIIDTPPIGLVVDAAIIANACDGFILVTQAGRIKRNYVEKAKEQMEQSGSKFLGIILNKVNESVATYGDYGNYGKRDRKRK	not soluble
MGSDKIHHHHHHMTRTSPTHAKLAQPIVHAPGLFHSLAPGERKRDKLDVTHVAGDTTVRFVGFEPLDSTDLRVLQGLIALATAGLRNIRRLLRDGQSLRTSLDLKGDAQDERTVAARFTLASLADMAGFDRGGFGCRQMRASLQRLSNVTVLVDRPEFEGAFRLVSGYRLDKHTGELVVSISPLGTTAILGRQGYLRLNMDEVRRIHGEVAHLIHSRLHWVNQGDRRPVNMDTLCSYAYVGVRTGSALRKRRMAVRQALKELMDVGWTVTEKYPGTYLIGRPRRASDQGELVTRAGVNW	not soluble
MGSDKIHHHHHHMTSDIKRHIKELISGSENSEVEFKSAKGGLPESFWETFSAFANTNGGIIVLGIKEKNGIFMPDGLNKQQIDTYKKRFWDCAHNKEKVSATMLAERDVYETDIDGNFVLLFRIPRASYDIRPVYLTRNPFGNTFKRNHEGDYHCTDSEIRQMFADAHHATLPFDNQILPNYSMNDIDVATLKGYRQRFMLRKDNHPWNELDDFNFLCKIGAYRVDRENGQEGFTRAGILMFGKTESITDQVCCPWYFVDYQEKLSNNTNERWSDRIYADGSWNANLYQFFFKVYNKLSQTLPAPFLLNGIERTEETSAHIAIREALVNCIVHCNYAEQGNILIVREKDKITFRNPGRMLISVDDFYVGSQSVCRNPIIQKFFIQLGYGEKAGSGADYIVKGAIDNKWHIPALVEHVQPDTVSLYLYLNDANDTSYDANNTSYDANDTSYDANDTSYDANDTSSNEHGQRLTKETLINRVLEICEDWITIDEISEKTGKSRQYLRGRIIPEMLKLGLLEKQYPDASTSPNQKYRKKQ	not soluble
MGSDKIHHHHHHMTTARRQLIDAESTPFYHVINRCVRRAFLCGEDALSGRSYEHRRDWIVDKIKQLSSVFCIDVCAYAVMSNHYHLVLKINLATQKRLSHFEVIERWTQLFFGHPVAAKFLKGDSLEEGERLLLDSLIGEWQERLGSISWFMRCLNEEIARKANREDGCKGVFWEGRFKSQALLDEQALLACMMYVDLNPIRAGIADSLQGSDYTSIQERIEELASPQSAPVALKPLLAFDGAAIATEQCGIPFHFADYLELIDWTGRAVREDKRGFIATTRPKLLAELGISDDAWITSAKEFRRQYSGISGRWDAMCAMKAKCGGKWCRGKQQSASIHPD	not soluble
MGSDKIHHHHHHMTTQAKQPSRFDRNPLASENERLILDIVRRHGPIARSVITTHTNLTQQSVHRLIEGLIERGLLRTGAPLKGARGQPSPTIELAVESVASLGISINTDSAIICLADFSCGVIAQKKLELLPLSREATLVSLSRTLDEMLEAHNLPRDRLLGLGFAMSGFSVADDRIFNAPEPLQDWSLMDLRPILEQTFQLPVWQENNATTGAIGESLQGVGRWCQTFAYLSFNYGFGGGLILNGQPFYGFHGNAAELSGIYDPTEAPRRPALQYLLRSLQDHGIEIDSVDTLYRTFDPGWPGVEAWLEATMPQVERLVAVLIAVIDPQAIVFGGQLPPALGAMMIERCPMPSQRVHRYGVGPKEARLVLSEVKGDAAVIGAALLPLKMRYFI	not soluble
MGSDKIHHHHHHMTTSEAPQCPYHLKQSLTRRPTAGARPSAAIEVDGNGIYRIHAFQAARDILRSNSVRQAGFMSESARGVRGLGNPPVLFEEGEKHHEMRRSTARYFTPTQVAEYQPMIAALADDLIAELIRRGEMNLDDLSLRLAVNVAARVVGLTSSRVPGLERRVISFVESGGDSEPSSTQPRKSRLESLRQQAKMALFYFLDVKPAIAARRQQRQDDLISHLLDREYNDLEILTECLTYGTAGMVTTREFISVAAWHLLRNPGLRAEYVHGTEPERHAILHEILRLEPVVTMLYRRAEGELTVAGQTIPAGSLLALHLQEANTDPAVAGADAEQLCPGRTLPRGVAPQVLAFGDGHHRCPGAFLAIKESDVFLRRLLVWQDLEIVSEPEVNSNEVVKGYELRGFRVRLGRAARP	not soluble
MGSDKIHHHHHHMTTTPFNRLLLTGAAGGLGKVLRERLKGYAEVLRLSDISPMAPAAGPHEEVITCDLADKAAVHTLVEGVDAIIHFGGVSTEHAFEEILGPNICGVFHVYEAARKHGVKRIIFASSNHTIGFYRQDERIDAHAPRRPDSYYGLSKCYGEDVASFYFDRYGIETVSIRIGSSFPQPQNLRMLCTWLSYDDLVQLIERGLFTPGVGHTIVYGASDNRTVWWDNRHAAHLGYVPKDSSETFRAAVEAQPAPAADDPSMVYQGGAFAVAGPFN	not soluble
MGSDKIHHHHHHMTVADLVAGLRESRGFRHKTDIVDVVGSLAKRLPRGKRDLAQAVALGDDCAALADGDGYLLFAIEGMVSDFVSAMPWFAGYSSVMVNVSDIYAMGGRPLAVVDALWSQGIGAAEEVLAGMAAASVAYGVPIVGGHTNTRSEAAQLAVSIIGRARALLSSFNAKPGDSLMMAVDLRGRFEEPYPFWNASVDAPPERLRADLELLPQLAENGLCDAAKDISMAGTLGTALMLLECSQVGARIDLACIPKPEGVPLERWVSAFPSFGYLLSVRPEHVETVRAKFSARSLACSVIGSVDATSQVVLHRQDDAATLWDFQREPFIIGKDEVK	not soluble
